Test [1] concerns the target T1, human PD-1 expressed on cells (human, UniProt Q15116 25-288).
T1 construct: whole, on cells; also called hPD-1; 293 cell line stably expressing human PD-1
The test is described as follows: flow cytometry on activated hCD8 T cells from human blood, 2nd-hIgG-PE detection; 2nd-hIgG-PE alone 1.73.

Test [2] addresses T2, recombinant human PD-1-His protein (ECD) (human, UniProt Q15116 25-170).
T2 construct: extracellular domain; Used as ELISA coat and SPR partner; also called rhprotein; antigen; not shown: His tag
Description: SPR, purified antibody, PD-1 antigen.

For test [3], the target named is T1, human PD-1 expressed on cells. The test is described as follows: flow cytometry on cells overexpressing hPD-1.
Test [4] shares this target. Description: flow cytometry on hPD-1/293 cells, 2nd-hIgG-PE detection; Ctl 2nd-hIgG 0.17, cell only 0.03. An excerpt: (§1) In addition, each purified humanized antibody was bound to 293 cells expressing human PD-1 and analyzed by flow cytometry.
Test [5] concerns the target T2, recombinant human PD-1-His protein (ECD). The test is described as follows: Q-ELISA of purified antibody on recombinant human PD-1-His, drawn table. The method, then: For ELISA, the recombinant human PD-1-His protein was O/N coated on a 96-well ELISA plate at 4° C., and blocked with 5% non-fat skim milk at RT for 1 hr. […]
For test [6] the target is unchanged. The test is described as follows: SPR; number in the sensorgram panel without name or unit, taken as KD in M because 9.655e-9 stands for 9.7 nM in FIG 9d.
Test [7] has the same target. Description: SPR.
Test [8] shares this target. The test is described as follows: SPR, drawn table; no unit in the KD column, the Affinity column gives 9.7 nM (the text prints only 9.7 nM).
The target in test [9] is T1, human PD-1 expressed on cells. The test is described as follows: cell-based or functional assay.
The target of another test is T3, mouse PD-1 antigen (mouse, UniProt Q02242 25-167, limits assumed).
T3 construct: ELISA antigen
T3 sequence (looked up): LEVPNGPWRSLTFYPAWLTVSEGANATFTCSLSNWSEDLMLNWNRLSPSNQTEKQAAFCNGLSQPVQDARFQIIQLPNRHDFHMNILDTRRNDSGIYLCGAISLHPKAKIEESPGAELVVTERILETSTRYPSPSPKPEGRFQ
The test is described as follows: ELISA on the PD-1 antigen of the species, antibody 500 to 3.90625 ng in 1/2 steps.

Test [10] deals with T2, recombinant human PD-1-His protein (ECD). Description: SPR, drawn table; the column heads print no unit, units as in the table of FIG 7b.
Test [11] has the same target. Description: SPR; number in the sensorgram panel without name or unit, taken as KD in M because 5.789e-9 stands for 5.8 nM in FIG 9d.
Test [12] shares this target. Description: ELISA on coated recombinant human PD-1-His protein. How it is done: For ELISA, the recombinant human PD-1-His protein was O/N coated on a 96-well ELISA plate at 4° C., and blocked with 5% non-fat skim milk at RT for 1 hr. The antibody was treated with ½ serial dilution of each hybridoma culture medium from 100 ul at RT for 2 hr, and detected by anti-mIgG-HRP.
as §1

Test [13] shares this target. The test is described as follows: SPR, drawn table; no unit in the KD column, the Affinity column gives 5.8 nM (the text prints only 5.8 nM).
For test [14] the target is unchanged. Description: SPR; number in the sensorgram panel without name or unit, taken as KD in M because 8.999e-9 stands for 9 nM in FIG 9d.

The record followed here is patent US20250270320A1 (EUTILEX, published 2025).

Substitutions are numbered along the chain they refer to.

T2 sequence (Q15116 25-170): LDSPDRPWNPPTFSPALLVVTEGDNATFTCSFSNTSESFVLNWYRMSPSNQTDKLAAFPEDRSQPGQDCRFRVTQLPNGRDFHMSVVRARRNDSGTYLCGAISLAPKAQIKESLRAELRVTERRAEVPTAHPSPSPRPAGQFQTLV
T1 sequence (Q15116 25-288): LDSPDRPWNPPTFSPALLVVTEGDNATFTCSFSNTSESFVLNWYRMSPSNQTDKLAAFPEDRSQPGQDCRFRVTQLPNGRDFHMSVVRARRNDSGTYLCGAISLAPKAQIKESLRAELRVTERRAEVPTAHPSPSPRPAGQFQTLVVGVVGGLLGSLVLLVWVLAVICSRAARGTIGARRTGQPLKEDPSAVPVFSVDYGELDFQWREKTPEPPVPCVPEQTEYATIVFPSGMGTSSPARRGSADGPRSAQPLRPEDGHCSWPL

B1: humanized antibody 7C5 (antibody, V domains shown)
VH: EVQLVESGGGLVKPGGSLRLSCAASGFTFSSFGMSWVRQAPGKGLELVATIYSNGDYTYYPDSVKGRFTVSRDNAKNSLYLQMNSLRAEDTAVYYCARYYGNYGGYFDYWGQGTLVTVSS
VL: AIQMTQSPSSLSASVGDRVTITCKASQSVSNDVAWYQQKPGKAPKLLIYYASNRYTGVPSRFSGSGSGTDFTLTISSLQPEDFATYYCQQDYSSPPTFGGGTKVEIK
notes: Humanized antibody
On to B1, for which the “percent of cells in the positive quadrant” value (from here on “percent of cells”) in test [1] turned out to be 6.39%. In addition, in test [2], the Kd worked out at 57.2 nM, the koff came out at 0.00492 s⁻¹ and the kon came out at 86000 M⁻¹ s⁻¹. Besides, the “percent of cells” value in test [3] came to 96.4%. The “percent of cells” value in test [4] stood at 95.3%. Moreover, in test [5], the “OD=405, row 1 of 8 (1/2 serial dilution from 500ng)” value amounted to 3.42; the “OD=405, row 2 of 8 (1/2 serial dilution from 500ng)” value worked out at 3.39; the “OD=405, row 3 of 8 (1/2 serial dilution from 500ng)” value is 3.42; the “OD=405, row 4 of 8 (1/2 serial dilution from 500ng)” value stood at 3.34. In addition, in [5], the “OD=405, row 5 of 8 (1/2 serial dilution from 500ng)” value was determined as 3.22; the “OD=405, row 6 of 8 (1/2 serial dilution from 500ng)” value turned out to be 2.74; the “OD=405, row 7 of 8 (1/2 serial dilution from 500ng)” value was 1.96; the “OD=405, row 8 of 8 (1/2 serial dilution from 500ng)” value turned out to be 1.16. The Kd in [6] was determined as 211 nM.

B2: 7C5-T15-01 (antibody, human IgG4, V domains shown)
VH: B1 VH
VL: B1 VL with S30W, N31D, V33L, A34T
As for B2, the results for the “percent of cells” value in test [1] and in [3] were 20.3% and 97.3%, respectively. Also, the Kd in test [7] is 9.7 nM; in [8], 9.65 nM. Further, the “EC50 (read off the curve); PD-1/PD-L1 Blockade Bioassay, luciferase RAU” value in test [9] was roughly 0.7 µg/mL. Moreover, the binding result in the test with mouse PD-1 antigen is given as “no binding (tested: 500 ng)”. Moreover, the koff in test [10] was determined as 0.000632 s⁻¹. Further, the kon in test [10] came out at 65500 M⁻¹ s⁻¹.

B3: humanized antibody 2B3W (antibody, V domains shown)
VH: EVQLVESGGGLVQPGGSLRLSCAASGFVFSNYDMSWVRQAPGKGLEWVAYITIGGGTTYYPDTVKGRFTISRDNAKNSLYLQMNSLRAEDTAVYYCARWVYDPLYAMDYWGQGTTVTVSS
VL: DIVLTQTPLSLSVTPGQPASISCRASESVDNYGISFMNWFLQKPGQPPQLLIYAASNQGSGVPDRFSGSGSGTDFTLKISRVEAEDVGVYYCQQSKEVPWTFGQGTKVEIK
notes: Humanized antibody made in Expi293 cells
As for B3, the “percent of cells” value in test [1] amounted to 9.77%. Also, in test [2], the Kd amounted to 13.4 nM, the koff came out at 0.00271 s⁻¹ and the kon worked out at 203000 M⁻¹ s⁻¹. The “percent of cells” value in test [3] was found to be 95.6%. In addition, in [11], the Kd worked out at 428 nM. Besides, in [4], the “percent of cells” value was determined as 94.7%. In addition, in [5], the “OD=405, row 1 of 8 (1/2 serial dilution from 500ng)” value was determined as 3.17; the “OD=405, row 2 of 8 (1/2 serial dilution from 500ng)” value was determined as 3.15; the “OD=405, row 3 of 8 (1/2 serial dilution from 500ng)” value was found to be 3.2; the “OD=405, row 4 of 8 (1/2 serial dilution from 500ng)” value was determined as 3.13. In test [5], the “OD=405, row 5 of 8 (1/2 serial dilution from 500ng)” value stood at 2.92; the “OD=405, row 6 of 8 (1/2 serial dilution from 500ng)” value worked out at 2.45; the “OD=405, row 7 of 8 (1/2 serial dilution from 500ng)” value stood at 1.7; the “OD=405, row 8 of 8 (1/2 serial dilution from 500ng)” value was 1.09.

B4: humanized antibody 2B3R (antibody, V domains shown)
VH: B3 VH with W99R
VL: B3 VL
notes: Humanized antibody
Consider B4, for which, in test [12], the binding result is “no binding”.

B5: 2B3W-T14-05 (antibody, human IgG4, V domains shown)
VH: B3 VH with V100R, Y105F
VL: B3 VL with D30T, N31D
notes: also called EU135-T14.05
Turning to B5, the “percent of cells” value in test [1] came out at 17%. Moreover, in test [7], the Kd was determined as 5.8 nM. The equilibrium dissociation constant (Kd) in test [13] came to 5.79 nM. Also, the “EC50 (read off the curve); PD-1/PD-L1 Blockade Bioassay, luciferase RAU” value in test [9] was roughly 0.8 µg/mL. In addition, in the test with mouse PD-1 antigen, the binding result was “no binding (tested: 500 ng)”. In addition, in [10], the koff was determined as 0.000508 s⁻¹ and the kon was 87800 M⁻¹ s⁻¹.

B6: humanized antibody 8D4 (antibody, V domains shown)
VH: QVQLVQSGAEVKKPGASVKVSCKASGYTFTTYWIHWVRQAPGQGLEWIGYINPTTGYTEYNQKFKDRATLTADKSTSTAYMELSSLRSEDTAVYYCARGVRYYFDYWGKGTTVTVSS
VL: DIVMTQSPDSLAVSLGERATINCKSSQSLLDSRTRKNYLAWYQQKPGQPPKLLIYWASTRESGVPDRFSGSGSGTDFTLTISSLQAEDVAVYYCKQSYNLITFGQGTKLEIK
notes: Humanized antibody
With B6, in test [2], the equilibrium dissociation constant (Kd) amounted to 29.6 nM, the koff came to 0.00176 s⁻¹ and the kon is 59400 M⁻¹ s⁻¹. In addition, the “percent of cells” value in test [3] turned out to be 96.2%. Also, the Kd in test [14] is 18.5 nM. Besides, the “percent of cells” value in test [4] came to 96.1%. In [5], the “OD=405, row 1 of 8 (1/2 serial dilution from 500ng)” value stood at 3.35; the “OD=405, row 2 of 8 (1/2 serial dilution from 500ng)” value came to 3.31; the “OD=405, row 3 of 8 (1/2 serial dilution from 500ng)” value was determined as 3.33; the “OD=405, row 4 of 8 (1/2 serial dilution from 500ng)” value stood at 3.26. Besides, in test [5], the “OD=405, row 5 of 8 (1/2 serial dilution from 500ng)” value amounted to 2.95; the “OD=405, row 6 of 8 (1/2 serial dilution from 500ng)” value amounted to 2.41; the “OD=405, row 7 of 8 (1/2 serial dilution from 500ng)” value turned out to be 1.61; the “OD=405, row 8 of 8 (1/2 serial dilution from 500ng)” value was 0.975.
